According to paper PMC9482650, “Quantitative fragmentomics allow affinity mapping of interactomes” (Nature Communications, 2022):
Blank lines part the entries; values can stand above or below the binder they belong to.

Tests used:
Experiment in all cases: holdup assay
Set-up in all cases: key: below the threshold = too weak to quantify, mostly under pKd 3.1 to 4
APBA2_2, Q99767 = molecular target: T1, APBA2_2, Q99767
T1 sequence (Q99767 654-744, limits assumed, looked up): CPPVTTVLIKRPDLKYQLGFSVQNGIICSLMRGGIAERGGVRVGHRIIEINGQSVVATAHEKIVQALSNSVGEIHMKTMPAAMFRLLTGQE

ARHGAP21, Q5T5U3 = molecular target: T2, ARHGAP21, Q5T5U3
T2 sequence (Q5T5U3 45-169, limits assumed, looked up): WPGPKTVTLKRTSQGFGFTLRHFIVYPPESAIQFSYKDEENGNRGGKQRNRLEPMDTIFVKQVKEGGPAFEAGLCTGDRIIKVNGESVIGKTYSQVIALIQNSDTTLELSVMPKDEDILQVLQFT

DLG2_3, Q15700 = molecular target: DLG2_3, Q15700
DLG3_3, Q92796 = molecular target: T3, DLG3_3, Q92796
T3 sequence (Q92796 374-475, limits assumed, looked up): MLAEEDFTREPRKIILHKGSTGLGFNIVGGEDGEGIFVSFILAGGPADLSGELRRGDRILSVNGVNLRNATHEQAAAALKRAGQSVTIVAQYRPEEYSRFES

FRMPD2_3, Q68DX3 = molecular target: FRMPD2_3, Q68DX3
Chain of FRMPD2_3, Q68DX3 (Q68DX3 1073-1166): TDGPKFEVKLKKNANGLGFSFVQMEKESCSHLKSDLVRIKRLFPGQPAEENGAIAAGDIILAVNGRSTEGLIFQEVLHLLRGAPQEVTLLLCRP

FRMPD4, Q14CM0 = molecular target: FRMPD4, Q14CM0
Chain of FRMPD4, Q14CM0 (Q14CM0 67-160): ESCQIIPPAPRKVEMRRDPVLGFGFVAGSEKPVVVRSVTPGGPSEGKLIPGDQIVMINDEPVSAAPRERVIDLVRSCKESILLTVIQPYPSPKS

GOPC, Q9HD26 = molecular target: GOPC, Q9HD26
GORASP2, Q9H8Y8 = molecular target: GORASP2, Q9H8Y8
HTRA4, P83105 = molecular target: T4, HTRA4, P83105
T4 sequence (P83105 378-476, limits assumed, looked up): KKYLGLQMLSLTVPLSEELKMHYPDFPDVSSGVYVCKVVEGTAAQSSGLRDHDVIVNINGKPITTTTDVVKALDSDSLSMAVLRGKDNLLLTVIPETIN

IL16_3, Q14005 = molecular target: IL16_3, Q14005
Chain of IL16_3, Q14005 (Q14005 1107-1207): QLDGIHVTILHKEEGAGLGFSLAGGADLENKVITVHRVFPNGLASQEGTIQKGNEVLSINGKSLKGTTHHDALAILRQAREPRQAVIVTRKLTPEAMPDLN

IL16_4, Q14005 = molecular target: IL16_4, Q14005
Chain of IL16_4, Q14005 (Q14005 1229-1329): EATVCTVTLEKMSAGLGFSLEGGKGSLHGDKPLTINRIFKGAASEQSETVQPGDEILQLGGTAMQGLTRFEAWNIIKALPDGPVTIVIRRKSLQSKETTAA

Inadl_4, Q8NI35 = molecular target: Inadl_4, Q8NI35
Chain of Inadl_4, Q8NI35 (Q8NI35 547-651): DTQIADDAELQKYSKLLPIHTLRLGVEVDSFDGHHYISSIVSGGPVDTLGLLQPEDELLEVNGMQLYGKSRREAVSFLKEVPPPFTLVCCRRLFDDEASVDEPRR

Inadl_6, Q8NI35 = molecular target: Inadl_6, Q8NI35
Chain of Inadl_6, Q8NI35 (Q8NI35 1058-1167): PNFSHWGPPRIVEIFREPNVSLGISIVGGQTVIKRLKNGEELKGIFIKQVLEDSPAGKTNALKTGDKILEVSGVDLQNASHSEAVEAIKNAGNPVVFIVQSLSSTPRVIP

Inadl_9, Q8NI35 = molecular target: Inadl_9, Q8NI35
Chain of Inadl_9, Q8NI35 (Q8NI35 1530-1615): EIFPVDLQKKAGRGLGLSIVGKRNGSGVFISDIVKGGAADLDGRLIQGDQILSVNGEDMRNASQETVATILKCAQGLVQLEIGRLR

LNX1_3, Q8TBB1 = molecular target: LNX1_3, Q8TBB1
Chain of LNX1_3, Q8TBB1 (Q8TBB1 500-596): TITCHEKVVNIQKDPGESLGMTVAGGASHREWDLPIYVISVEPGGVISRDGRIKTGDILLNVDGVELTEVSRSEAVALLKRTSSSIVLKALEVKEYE

LNX2_3, Q8N448 = molecular target: T5, LNX2_3, Q8N448
T5 sequence (Q8N448 463-564, limits assumed, looked up): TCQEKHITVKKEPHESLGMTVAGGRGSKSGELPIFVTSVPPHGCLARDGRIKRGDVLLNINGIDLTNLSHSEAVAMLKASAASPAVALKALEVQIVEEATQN

LRRC7, Q96NW7 = molecular target: T6, LRRC7, Q96NW7
T6 sequence (Q96NW7 1440-1537, limits assumed, looked up): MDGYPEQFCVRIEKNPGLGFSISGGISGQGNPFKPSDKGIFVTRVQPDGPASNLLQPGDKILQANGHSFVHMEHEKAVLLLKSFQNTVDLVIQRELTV

MAGI1_1, Q96QZ7 = molecular target: MAGI1_1, Q96QZ7
Chain of MAGI1_1, Q96QZ7 (Q96QZ7 1-106): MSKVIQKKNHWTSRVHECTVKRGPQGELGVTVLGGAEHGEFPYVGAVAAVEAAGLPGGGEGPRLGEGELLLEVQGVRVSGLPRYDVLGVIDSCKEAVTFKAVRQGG

MAGI1_2, Q96QZ7 = molecular target: MAGI1_2, Q96QZ7
Chain of MAGI1_2, Q96QZ7 (Q96QZ7 456-580): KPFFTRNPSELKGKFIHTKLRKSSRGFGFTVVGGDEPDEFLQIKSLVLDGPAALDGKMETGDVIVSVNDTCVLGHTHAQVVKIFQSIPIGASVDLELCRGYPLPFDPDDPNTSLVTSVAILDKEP

MAGI2_4, Q86UL8 = molecular target: MAGI2_4, Q86UL8
Chain of MAGI2_4, Q86UL8 (Q86UL8 772-865): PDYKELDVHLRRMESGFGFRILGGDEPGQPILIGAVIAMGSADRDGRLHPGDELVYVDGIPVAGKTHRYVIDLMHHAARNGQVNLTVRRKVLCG

MAGI3_2, Q5TCQ9 = molecular target: MAGI3_2, Q5TCQ9
Chain of MAGI3_2, Q5TCQ9 (Q5TCQ9 398-503): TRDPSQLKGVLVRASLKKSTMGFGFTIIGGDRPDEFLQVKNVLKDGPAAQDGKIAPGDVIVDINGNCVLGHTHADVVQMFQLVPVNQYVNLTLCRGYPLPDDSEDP

NHERF4_2, Q86UT5 = molecular target: NHERF4_2, Q86UT5
Chain of NHERF4_2, Q86UT5 (Q86UT5 220-308): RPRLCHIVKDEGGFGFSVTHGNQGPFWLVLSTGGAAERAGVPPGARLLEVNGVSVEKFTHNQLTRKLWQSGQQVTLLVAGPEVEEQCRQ

NOS1, P29475 = molecular target: NOS1, P29475
Chain of NOS1, P29475 (P29475 9-101): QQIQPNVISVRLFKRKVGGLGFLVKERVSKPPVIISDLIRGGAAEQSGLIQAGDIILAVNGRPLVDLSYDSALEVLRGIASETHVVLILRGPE

PARD3B_1, Q8TEW8 = molecular target: T7, PARD3B_1, Q8TEW8
T7 sequence (Q8TEW8 196-299, limits assumed, looked up): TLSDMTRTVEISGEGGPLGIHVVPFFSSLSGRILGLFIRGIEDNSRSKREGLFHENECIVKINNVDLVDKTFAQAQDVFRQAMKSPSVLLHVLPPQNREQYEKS

PCLO, Q9Y6V0 = molecular target: T8, PCLO, Q9Y6V0
T8 sequence (Q9Y6V0 4491-4600, limits assumed, looked up): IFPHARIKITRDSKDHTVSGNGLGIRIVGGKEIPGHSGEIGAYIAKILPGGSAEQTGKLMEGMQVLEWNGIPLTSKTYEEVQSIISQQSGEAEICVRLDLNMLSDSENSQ

SHANK1, Q9Y566 = molecular target: T9, SHANK1, Q9Y566
T9 sequence (Q9Y566 658-767, limits assumed, looked up): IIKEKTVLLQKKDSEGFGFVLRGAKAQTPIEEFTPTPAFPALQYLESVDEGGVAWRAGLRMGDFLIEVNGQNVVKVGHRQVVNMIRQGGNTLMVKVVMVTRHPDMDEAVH

SYNJ2BP, P57105 = molecular target: T10, SYNJ2BP, P57105
T10 sequence (P57105 8-110, limits assumed, looked up): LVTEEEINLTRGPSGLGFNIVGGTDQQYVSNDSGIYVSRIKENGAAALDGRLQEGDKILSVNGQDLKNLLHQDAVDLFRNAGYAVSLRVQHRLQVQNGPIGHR

[1] = plain residues with an end cap or a label only (N-terminal biotin on a linker: ttds)
[2] = plain residues with an end cap or a label only (N-terminal biotin on a linker: ado-ado)
[3] = plain residues with an end cap or a label only (N-terminal biotin on a linker: ahx)

pKd (APBA2_2, Q99767; [1]): below the threshold | pKd (ARHGAP21, Q5T5U3; [1]): below the threshold | pKd (DLG2_3, Q15700; [1]): 4.21 | pKd (DLG3_3, Q92796; [1]): 4.01 | pKd (FRMPD2_3, Q68DX3; [1]): below the threshold | pKd (FRMPD4, Q14CM0; [1]): 4.1 | pKd (GOPC, Q9HD26; [1]): below the threshold | pKd (GORASP2, Q9H8Y8; [1]): below the threshold | pKd (HTRA4, P83105; [1]): below the threshold | pKd (IL16_3, Q14005; [1]): below the threshold | pKd (IL16_4, Q14005; [1]): 3.58 | pKd (Inadl_4, Q8NI35; [1]): below the threshold | pKd (Inadl_6, Q8NI35; [1]): 3.55 | pKd (Inadl_9, Q8NI35; [1]): below the threshold | pKd (LNX1_3, Q8TBB1; [1]): below the threshold | pKd (LNX2_3, Q8N448; [1]): below the threshold | pKd (LRRC7, Q96NW7; [1]): below the threshold | pKd (MAGI1_1, Q96QZ7; [1]): below the threshold | pKd (MAGI1_2, Q96QZ7; [1]): 3.76 | pKd (MAGI2_4, Q86UL8; [1]): below the threshold | pKd (MAGI3_2, Q5TCQ9; [1]): 4.17 | pKd (NHERF4_2, Q86UT5; [1]): below the threshold | pKd (NOS1, P29475; [1]): 3.82 | pKd (PARD3B_1, Q8TEW8; [1]): below the threshold | pKd (PCLO, Q9Y6V0; [1]): below the threshold | pKd (SHANK1, Q9Y566; [1]): 3.56 | pKd (SYNJ2BP, P57105; [1]): 4.69
B1: MAPK12, P53778 (peptide)
chain: GARVSKETPL

pKd (APBA2_2, Q99767; [2]): below the threshold | pKd (ARHGAP21, Q5T5U3; [2]): 4.04 | pKd (DLG2_3, Q15700; [2]): below the threshold | pKd (DLG3_3, Q92796; [2]): below the threshold | pKd (FRMPD2_3, Q68DX3; [2]): below the threshold | pKd (FRMPD4, Q14CM0; [2]): below the threshold | pKd (GOPC, Q9HD26; [2]): 3.75 | pKd (GORASP2, Q9H8Y8; [2]): below the threshold | pKd (HTRA4, P83105; [2]): 3.9 | pKd (IL16_3, Q14005; [2]): below the threshold | pKd (IL16_4, Q14005; [2]): below the threshold | pKd (Inadl_4, Q8NI35; [2]): below the threshold | pKd (Inadl_6, Q8NI35; [2]): below the threshold | pKd (Inadl_9, Q8NI35; [2]): 4.08 | pKd (LNX1_3, Q8TBB1; [2]): below the threshold | pKd (LNX2_3, Q8N448; [2]): below the threshold | pKd (LRRC7, Q96NW7; [2]): below the threshold | pKd (MAGI1_1, Q96QZ7; [2]): 3.49 | pKd (MAGI1_2, Q96QZ7; [2]): below the threshold | pKd (MAGI2_4, Q86UL8; [2]): below the threshold | pKd (MAGI3_2, Q5TCQ9; [2]): 4.44 | pKd (NHERF4_2, Q86UT5; [2]): below the threshold | pKd (NOS1, P29475; [2]): 3.76 | pKd (PARD3B_1, Q8TEW8; [2]): below the threshold | pKd (PCLO, Q9Y6V0; [2]): below the threshold | pKd (SHANK1, Q9Y566; [2]): below the threshold | pKd (SYNJ2BP, P57105; [2]): 3.66
B2: CBY2, Q8NA61 (peptide)
chain: SQDPKKPSRV

pKd (APBA2_2, Q99767; [3]): below the threshold | pKd (ARHGAP21, Q5T5U3; [3]): 3.49 | pKd (DLG2_3, Q15700; [3]): 4.44 | pKd (DLG3_3, Q92796; [3]): 3.68 | pKd (FRMPD2_3, Q68DX3; [3]): below the threshold | pKd (FRMPD4, Q14CM0; [3]): below the threshold | pKd (GOPC, Q9HD26; [3]): 3.75 | pKd (GORASP2, Q9H8Y8; [3]): below the threshold | pKd (HTRA4, P83105; [3]): below the threshold | pKd (IL16_3, Q14005; [3]): below the threshold | pKd (IL16_4, Q14005; [3]): below the threshold | pKd (Inadl_4, Q8NI35; [3]): below the threshold | pKd (Inadl_6, Q8NI35; [3]): below the threshold | pKd (Inadl_9, Q8NI35; [3]): 3.57 | pKd (LNX1_3, Q8TBB1; [3]): below the threshold | pKd (LNX2_3, Q8N448; [3]): below the threshold | pKd (LRRC7, Q96NW7; [3]): below the threshold | pKd (MAGI1_1, Q96QZ7; [3]): below the threshold | pKd (MAGI1_2, Q96QZ7; [3]): 3.52 | pKd (MAGI2_4, Q86UL8; [3]): below the threshold | pKd (MAGI3_2, Q5TCQ9; [3]): 3.59 | pKd (NHERF4_2, Q86UT5; [3]): below the threshold | pKd (NOS1, P29475; [3]): 3.55 | pKd (PARD3B_1, Q8TEW8; [3]): below the threshold | pKd (PCLO, Q9Y6V0; [3]): below the threshold | pKd (SHANK1, Q9Y566; [3]): below the threshold | pKd (SYNJ2BP, P57105; [3]): 4.42
B3: MTMR1, Q13613 (peptide)
chain: HSATSVHTSV
